Consider twelve molecules from patent US20230167182A1 (BIOSION, published 2023).

Broadly, the IC50 is the midpoint of a concentration-inhibition curve. A higher IC50 goes with a need for much substance. Usually EC50 stands for the concentration at which the effect is half-maximal. Low readings indicate an effect from little substance, high ones a need for much substance. The term Kd denotes the constant that tells how readily two partners part at equilibrium. As usually defined, the koff is the first-order rate constant of dissociation. In general, kon refers to the second-order rate constant of association.

Where a chain is given by its changes, count along the chain named.

To fix the notation:
B1: Chimeric 1B5 (antibody, human IgG1, kappa, V domains shown)
VH: QVQLQQPGAELVKPGASVKLSCKASGYTFTSYWMHWVKQRPGQGLEWIGEINPSNGRTNYNENFKSKATLTVDKSSSTAYMQLSSLTSEDSAVYYCARLNTHYVFDYWGQGTTLTVSS
VL: EIVLTQSPTILAASPGEKITFTCSVSSSISSNYLHWYQQKPGFSPKLLIYRTSNLASGVPARFSGSGSGTSYSLTIGTMEAEDVATYYCQQGSGIPFTFGSGTKLEIKR
notes: Mouse variable regions on human IgG1 / human kappa constant regions; also called chimeric antibody 1B5
B2: Chimeric 1H9 (antibody, human IgG1, kappa, V domains shown)
VH: QVQLQQPGAELVKPGASVKLSCKASGYTFTSYWMHWVKLRPGQGLEWIGEINPTNGRTNYYEKFKNRATLTADKSSSTAYMQLSSLTFEDSAVYFCAKFHYSRWYFDVWGTGTTVTVSS
VL: DIVMTQSQKFMSTSVGDRVSITCKASQNVGTAVVWYQQKPGQSPKLLINPASNRYTGVPDRFTGSGSGTDFTLTISNMQSEDLADYFCQQYSSYPLTFGAGTKLELKR
notes: Mouse variable regions on human IgG1 / human kappa constant regions; also called chimeric antibody 1H9
B3: humanized antibody hu1H7-V6 (antibody, human IgG1, kappa, V domains shown)
VH: QVQLVQSGAEVKKPGASVKVSCKASGYTFTNYWMHWVRQAPGQGLEWIGEINPTNGRTNYNENFKSKVTLTVDTSTSTVYMELSSLRSEDTAVYYCARLNTHYVFDSWGQGTLVTVSS
VL: EIVLTQSPGTLSLSPGERATLSCSVSSSISSNYLHWYQQKPGLSPRLLISRTSTLASGIPARFSGSGSGTEYTLTISRMQSEDFAVYYCQQGSGIPFTFGQGTKLEIKR
notes: Human IgG1 / kappa
B4: humanized antibody hu1H7-V7 (antibody, human IgG1, kappa, V domains shown)
VH: B3 VH with T74K, V79A
VL: B3 VL with Y72F, M79L
notes: Human IgG1 / kappa
B5: humanized antibody hu1H7-V9 (antibody, human IgG1, kappa, V domains shown)
VH: B3 VH with L70M
VL: B3 VL with Y72F, M79L
notes: Human IgG1 / kappa
B6: humanized antibody hu1H7-V1 (antibody, human IgG1, kappa, V domains shown)
VH: B3 VH with T74K, V79A
VL: B3 VL
notes: Human IgG1 / kappa; also called hu1H7-Vl
B7: humanized antibody hu1H7-V2 (antibody, human IgG1, kappa, V domains shown)
VH: B3 VH with V72R
VL: B3 VL
notes: Human IgG1 / kappa
B8: humanized antibody hu1H7-V11 (antibody, human IgG1, kappa, V domains shown)
VH: B3 VH with K67R
VL: B3 VL with Y72F, M79L
notes: Human IgG1 / kappa
B9: humanized antibody hu1H7-V1-2 (antibody, human IgG1, kappa, V domains shown)
VH: B3 VH with R38K, E46D, V68A, T74K, V79A
VL: B3 VL with S22T, L43F, E71S, T73S
notes: Human IgG1 / kappa; also called hu1H7-Vl-2
B10: humanized antibody hu1H7-V8 (antibody, human IgG1, kappa, V domains shown)
VH: B3 VH with V72R
VL: B3 VL with Y72F, M79L
notes: Human IgG1 / kappa
B11: humanized antibody hu1H7-V3 (antibody, human IgG1, kappa, V domains shown)
VH: B3 VH with L70M
VL: B3 VL
notes: Human IgG1 / kappa
B12: humanized antibody hu1H7-V12 (antibody, human IgG1, kappa, V domains shown)
VH: B3 VH
VL: B3 VL with Y72F, M79L
notes: Human IgG1 / kappa

The target in the first test is T1, human IL6R-Fc protein (human, biotin-labeled in the ELISAs (sites not given)).
T1 construct: In house made; also called biotin-labeled human IL6R-Fc protein
As to the kind of experiment: benchmark blocking ELISA: antibody pre-incubated with biotin-labeled human IL6R-Fc, added to plate-coated Tocilizumab (competitor: Tocilizumab). (In general: ELISA stands for enzyme-linked immunosorbent assay.)
Target sequence in this assay (chain, as listed by the source limits assumed): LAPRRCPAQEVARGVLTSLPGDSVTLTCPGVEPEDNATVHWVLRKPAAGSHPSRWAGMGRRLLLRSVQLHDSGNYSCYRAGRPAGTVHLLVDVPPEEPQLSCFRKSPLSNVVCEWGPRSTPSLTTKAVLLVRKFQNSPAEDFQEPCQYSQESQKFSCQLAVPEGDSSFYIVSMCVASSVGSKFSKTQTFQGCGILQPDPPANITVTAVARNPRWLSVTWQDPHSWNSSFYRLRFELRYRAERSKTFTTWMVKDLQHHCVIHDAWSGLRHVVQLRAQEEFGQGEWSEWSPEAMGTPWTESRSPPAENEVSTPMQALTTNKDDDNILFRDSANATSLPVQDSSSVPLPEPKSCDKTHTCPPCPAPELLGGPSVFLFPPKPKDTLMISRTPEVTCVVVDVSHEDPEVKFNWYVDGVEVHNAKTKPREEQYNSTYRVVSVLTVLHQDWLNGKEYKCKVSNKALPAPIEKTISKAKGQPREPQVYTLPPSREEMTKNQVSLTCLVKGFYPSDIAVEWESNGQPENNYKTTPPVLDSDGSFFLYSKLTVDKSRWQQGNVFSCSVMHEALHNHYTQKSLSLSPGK
B1 yielded an IC50 of 0.317 nM.

The next test has as its target T1, human IL6R-Fc protein. Nature of the test: capture ELISA: antibody captured on anti-IgG F(ab')2 coated plate, then biotin-labeled human IL6R-Fc, streptavidin-HRP. As to the method: (§1) For the capture ELISA, 96-well micro plates were coated with 2 μg/ml AffiniPure Goat Anti-Mouse IgG, F(ab′)₂ fragment specific (Jackson ImmunoResearch Laboratories, Inc., Cat #115-005-072) in PBS, 100 μl/well, and incubated for 2 hours at 37° C. Plates were washed once with wash buffer (PBS+0.05% v/v Tween-20, PBST) and then blocked with 200 μl/well blocking buffer (5% w/v non-fatty milk in PBST) overnight at 4° C. […] Plates containing captured anti-IL6R antibodies were incubated with biotin-labeled human IL6R-Fc protein (prepared in house, SEQ ID NO: 43, 39.5 ng/ml in 2.5% w/v non-fatty milk in PBST, 100 μl/well) for 40 minutes at 37° C., washed 4 times, and incubated with streptavidin conjugated HRP (1:10000 dilution in PBST, Jackson ImmunoResearch Laboratories, Inc., Cat #016-030-084, 100 μl/well) for 40 minutes at 37° C. After a final wash, plates were incubated with 100 μl/well ELISA substrate TMB (InnoReagents, Cat #TMB-S-002). The reaction was stopped 3-10 minutes later at room temperature with 50 μl/well 1M H₂SO₄, and the absorbance of each well was read on a microplate reader using dual wavelength mode at 450 nm for TMB and 630 nm as the reference wavelength. Then the OD (450-630) values were plotted against antibody concentration. Data was analyzed using Graphpad Prism software and EC₅₀ values were reported.
(§2) For the capture ELISA, AffiniPure Goat Anti-Human IgG, F(ab′)₂ fragment specific (Jackson Immuno Research, Cat #109-005-097) was used instead of AffiniPure Goat Anti-Mouse IgG, F(ab′)₂ fragment specific, 100 μl/well.
As for B2, the EC50 was 0.0897 nM.

The next test addresses T2, recombinant human IL6R-his (human, UniProt P08887 20-365).
T2 construct: In house made; the entry includes the C-terminal His tag; also called human IL6R-his protein
T2 sequence: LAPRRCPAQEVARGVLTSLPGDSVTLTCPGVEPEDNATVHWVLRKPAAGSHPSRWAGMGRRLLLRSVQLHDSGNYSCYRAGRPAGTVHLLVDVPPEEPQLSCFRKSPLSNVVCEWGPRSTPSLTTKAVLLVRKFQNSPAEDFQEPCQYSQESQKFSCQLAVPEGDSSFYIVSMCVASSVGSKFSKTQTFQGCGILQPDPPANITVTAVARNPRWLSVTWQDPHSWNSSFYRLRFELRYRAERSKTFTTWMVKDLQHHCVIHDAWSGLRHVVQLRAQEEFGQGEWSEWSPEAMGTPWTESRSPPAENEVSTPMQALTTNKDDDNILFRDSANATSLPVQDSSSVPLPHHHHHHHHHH
Nature of the test: SPR Biacore; antibody captured by anti-human IgG on CM5, human IL6R-his at 100 nM. As for the experimental part: (§3) Un-reacted moieties on the biosensor surface were blocked with ethanolamine. […] Then, serially diluted recombinant human IL6R-his (in house made, amino acid sequence set forth in SEQ ID NO: 44) or macaca IL6R-his protein (in house made, amino acid sequence set forth in SEQ ID NO: 45), starting at 100 nM with a 2-fold serial dilution in HBS-EP⁺ buffer (provided by Biacore), was flowed onto the chip at a flow rate of 30 μL/min. The antigen-antibody association kinetics was followed for 2 minutes and the dissociation kinetics was followed for 10 minutes. The association and dissociation curves were fit to a 1:1 Langmuir binding model using BIAcore evaluation software.
The recombinant human IL6R-his (amino acid sequence set forth in SEQ ID NO: 44) at the concentration of 100 nM instead of serially diluted recombinant human IL6R-his, was flowed onto the chip at a flow rate of 30 μL/min.
With B1, the Kd came to 0.915 nM, the koff was found to be 0.000194 s⁻¹ and the kon was determined as 212000 M⁻¹ s⁻¹.
Turning to B2, the Kd is 0.915 nM and the koff stood at 0.000194 s⁻¹.

For another test, the target named is T1, human IL6R-Fc protein. As to the kind of experiment: ligand blocking ELISA: antibody pre-incubated with biotin-labeled human IL6R-Fc, added to plate-coated human IL6 (blocked ligand: human IL6).
As for B2, the IC50 came out at 0.213 nM.

For another test, the target named is T1, human IL6R-Fc protein. Nature of the test: capture ELISA: antibody captured on anti-IgG F(ab')2 coated plate, then biotin-labeled human IL6R-Fc, streptavidin-HRP. This is another data set of the same source. As for the experimental part: as §1, §2
Target sequence in this assay (chain, as listed by the source limits assumed): as the sequence (chain, as listed by the source limits assumed) above
As to B1, it took 0.101 nM to reach a half-maximal effect (EC50).

The next test addresses T2, recombinant human IL6R-his. As to the kind of experiment: SPR Biacore; antibody from diluted cell supernatant captured by anti-human IgG on CM5, human IL6R in flow. As for the experimental part: as §3
Cell supernatants containing humanized antibodies were harvested after six days in shaking flasks and directly subjected to BIAcore test following the protocol described above with modifications.
For orientation: SPR reads the build-up and loss of mass on a sensor chip optically.
For B3, the Kd stood at 0.584 nM, the koff was 0.000195 s⁻¹ and the kon is 334000 M⁻¹ s⁻¹.
The matching figures for B4: 0.855 nM, 0.000199 s⁻¹ and 233000 M⁻¹ s⁻¹.
Consider B5, for which the Kd is 1.05 nM, the koff stood at 0.000222 s⁻¹ and the kon stood at 212000 M⁻¹ s⁻¹.
The matching figures for B6: 0.669 nM, 0.000173 s⁻¹ and 258000 M⁻¹ s⁻¹.
The matching figures for B7: 0.733 nM, 0.000197 s⁻¹ and 269000 M⁻¹ s⁻¹.
For B8 the same measures were 0.849 nM, 0.000202 s⁻¹ and 238000 M⁻¹ s⁻¹.
As to B9, the Kd turned out to be 0.63 nM, the koff was 0.000165 s⁻¹ and the kon was 262000 M⁻¹ s⁻¹.
For B10 the same measures were 0.91 nM, 0.000199 s⁻¹ and 218000 M⁻¹ s⁻¹.
As to B11, the Kd was 0.568 nM, the koff worked out at 0.000176 s⁻¹ and the kon is 311000 M⁻¹ s⁻¹.
As to B12, the Kd came to 0.744 nM, the koff was 0.000207 s⁻¹ and the kon turned out to be 279000 M⁻¹ s⁻¹.

The next test has as its target T1, human IL6R-Fc protein. As to the kind of experiment: benchmark blocking ELISA: antibody pre-incubated with biotin-labeled human IL6R-Fc, added to plate-coated Tocilizumab (competitor: Tocilizumab). The source holds these as a separate data set.
Regarding B2, the 50% inhibitory concentration (IC50) is 0.338 nM. This lies in the sub-nanomolar range.

The next test addresses T1, human IL6R-Fc protein. As to the kind of experiment: ligand blocking ELISA: antibody pre-incubated with biotin-labeled human IL6R-Fc, added to plate-coated human IL6 (blocked ligand: human IL6). The source holds these as a separate data set.
Target sequence in this assay (chain, as listed by the source limits assumed): as the sequence (chain, as listed by the source limits assumed) above
As to B1, the half-inhibitory concentration (IC50) was found to be 0.299 nM.
